Experimental data reported in the supplement of paper PMC7877785.
± gives the uncertainty stated by the source.

Assay: self-splicing fitness, log relative to wild type (ln ratio); higher = more splicing; Tetrahymena group I intron in knt gene, E. coli kanamycin selection, DiMSum; sequences stand for … in CUCUCU…GGAGGGAAAAGUUAUCAGGCAUGCACCUGGUAGCUAGUCUUUAAACCAAUAGAUUGCAUCGGUUUAAAAGGCAAGACCGUCAAAUUGCGGGAAAGGGGUCAACAGCCGUUCAGUACCAAGUCUCAGGGGAAACUUUGAGAUGGCCUUGCAAAGGGUAUGGUAAUAAGCUGACGGACAUGGUCCUAACCACGCAGCCAAGUCCUAAGUCAACAGAUCUUCUGUUGAUAUGGAUGCAGUUCACAGACUAAAUGUCGGUCGGGGAAGAUGUAUUCUUCUCAUAAGAUAUAGUCGGACCUCUCCUUAAUGGGAGCUAGCGGAUGAAGUGAUGCAACACUGGAGCCGCUGGGAACUAAUUUGUAUGCGAAAGUAUAUUGAUUAGUUUUGGAGUACUCGUGGUCG
Outline: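 DiMSum derived fitness as the error-weighted combination of fold changes across replicates, kanamycin versus no kanamycin, normalised to wild type. E. coli BL21(DE3) held the library, which randomised all eight P1ex-region intron nucleotides within the knt kanamycin-resistance gene on pET-22b(+). Six replicate transformations grew overnight at 37°C or 30°C on LB agar with or without 25 μg/mL kanamycin, also containing 100 μg/mL carbenicillin, 50 μM IPTG and 0.2% rhamnose, and pooled colonies were amplicon-sequenced on an Illumina HiSeq 2500.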

Sequence: UAACAGCAAUAUUACGCGCU
- self-splicing fitness (ln) (30 °C): -1.93 ± 0.096
- self-splicing fitness (ln) (37 °C): -0.612 ± 0.11

Sequence: UAACAGCAAUAUUACGCUCA
- self-splicing fitness (ln) (30 °C): -0.26 ± 0.091
- self-splicing fitness (ln) (37 °C): 0.174 ± 0.13

Sequence: UAACAGCAAUAUUACGCUUA
- self-splicing fitness (ln) (30 °C): -0.77 ± 0.071
- self-splicing fitness (ln) (37 °C): 0.122 ± 0.1

Sequence: UAACAGCAAUAUUACGGAUU
- self-splicing fitness (ln) (30 °C): -3.02 ± 0.12
- self-splicing fitness (ln) (37 °C): -0.666 ± 0.094

Sequence: UAACAGCAAUAUUACGGCCC
- self-splicing fitness (ln) (30 °C): -2.08 ± 0.35

Sequence: UAACAGCAAUAUUACGGGUA
- self-splicing fitness (ln) (30 °C): -0.895 ± 0.061
- self-splicing fitness (ln) (37 °C): 0.0689 ± 0.074

Sequence: UAACAGCAAUAUUACGGGUC
- self-splicing fitness (ln) (30 °C): -3.89 ± 0.17
- self-splicing fitness (ln) (37 °C): -2.62 ± 0.2

Sequence: UAACAGCAAUAUUACGGUCA
- self-splicing fitness (ln) (30 °C): -0.282 ± 0.073
- self-splicing fitness (ln) (37 °C): 0.714 ± 0.085

Sequence: UAACAGCAAUAUUACGUACC
- self-splicing fitness (ln) (30 °C): -0.513 ± 0.19
- self-splicing fitness (ln) (37 °C): -1.7 ± 0.24

Sequence: UAACAGCAAUAUUACGUAUU
- self-splicing fitness (ln) (30 °C): -3.38 ± 0.14
- self-splicing fitness (ln) (37 °C): -1.94 ± 0.18

Sequence: UAACAGCAAUAUUACGUGAA
- self-splicing fitness (ln) (30 °C): -1.61 ± 0.065
- self-splicing fitness (ln) (37 °C): -0.749 ± 0.083

Sequence: UAACAGCAAUAUUACGUGAG
- self-splicing fitness (ln) (30 °C): -0.729 ± 0.046
- self-splicing fitness (ln) (37 °C): -0.471 ± 0.071

Sequence: UAAGAGCAAUAUUACGAGUG
- self-splicing fitness (ln) (30 °C): -3.74 ± 0.23
- self-splicing fitness (ln) (37 °C): -1.16 ± 0.22

Sequence: UAAGAGCAAUAUUACGAUCA
- self-splicing fitness (ln) (30 °C): -2.23 ± 0.29
- self-splicing fitness (ln) (37 °C): -0.554 ± 0.19

Sequence: UAAGAGCAAUAUUACGCCAU
- self-splicing fitness (ln) (30 °C): -2.59 ± 0.46
- self-splicing fitness (ln) (37 °C): -1.46 ± 0.38

Sequence: UAAGAGCAAUAUUACGCCGA
- self-splicing fitness (ln) (30 °C): -2.94 ± 0.47

Sequence: UAAGAGCAAUAUUACGCUUA
- self-splicing fitness (ln) (30 °C): -3.19 ± 0.32
- self-splicing fitness (ln) (37 °C): -2.63 ± 0.35

Sequence: UAAGAGCAAUAUUACGCUUG
- self-splicing fitness (ln) (30 °C): -2.66 ± 0.23
- self-splicing fitness (ln) (37 °C): -1.38 ± 0.18

Sequence: UAAGAGCAAUAUUACGGACG
- self-splicing fitness (ln) (30 °C): -1.89 ± 0.2
- self-splicing fitness (ln) (37 °C): -1.67 ± 0.26

Sequence: UAAGAGCAAUAUUACGGAGG
- self-splicing fitness (ln) (30 °C): -3.41 ± 0.32
- self-splicing fitness (ln) (37 °C): -1.95 ± 0.46

Sequence: UAAGAGCAAUAUUACGGCUC
- self-splicing fitness (ln) (30 °C): -1.82 ± 0.26
- self-splicing fitness (ln) (37 °C): -1.32 ± 0.32

Sequence: UAAGAGCAAUAUUACGGGAU
- self-splicing fitness (ln) (30 °C): -3.55 ± 0.31
- self-splicing fitness (ln) (37 °C): -2.99 ± 0.28

Sequence: UAAGAGCAAUAUUACGGUGA
- self-splicing fitness (ln) (30 °C): -3.83 ± 0.23
- self-splicing fitness (ln) (37 °C): -2.14 ± 0.16

Sequence: UAAGAGCAAUAUUACGUCGC
- self-splicing fitness (ln) (37 °C): -3.39 ± 0.37

Sequence: UAAGAGCAAUAUUACGUUGC
- self-splicing fitness (ln) (30 °C): -2.74 ± 0.29
- self-splicing fitness (ln) (37 °C): -2.32 ± 0.4

Sequence: UAAUAGCAAUAUUACGAAAU
- self-splicing fitness (ln) (37 °C): -2.07 ± 0.36

Sequence: UAAUAGCAAUAUUACGAACG
- self-splicing fitness (ln) (30 °C): -0.579 ± 0.071
- self-splicing fitness (ln) (37 °C): -0.187 ± 0.082

Sequence: UAAUAGCAAUAUUACGAACU
- self-splicing fitness (ln) (30 °C): -1.37 ± 0.14
- self-splicing fitness (ln) (37 °C): -1.62 ± 0.17

Sequence: UAAUAGCAAUAUUACGAGAC
- self-splicing fitness (ln) (30 °C): -3.38 ± 0.28
- self-splicing fitness (ln) (37 °C): -2.03 ± 0.28

Sequence: UAAUAGCAAUAUUACGAGAU
- self-splicing fitness (ln) (30 °C): -4.03 ± 0.43
- self-splicing fitness (ln) (37 °C): -2.38 ± 0.47

Sequence: UAAUAGCAAUAUUACGAGGC
- self-splicing fitness (ln) (30 °C): -3.59 ± 0.35
- self-splicing fitness (ln) (37 °C): -1.46 ± 0.33

Sequence: UAAUAGCAAUAUUACGAGUC
- self-splicing fitness (ln) (30 °C): -2.97 ± 0.19
- self-splicing fitness (ln) (37 °C): -3.77 ± 0.42

Sequence: UAAUAGCAAUAUUACGCACG
- self-splicing fitness (ln) (30 °C): -1.1 ± 0.16
- self-splicing fitness (ln) (37 °C): 0.193 ± 0.24

Sequence: UAAUAGCAAUAUUACGCGAG
- self-splicing fitness (ln) (30 °C): -1.62 ± 0.14
- self-splicing fitness (ln) (37 °C): -1.46 ± 0.13

Sequence: UAAUAGCAAUAUUACGGACU
- self-splicing fitness (ln) (30 °C): -1.25 ± 0.15
- self-splicing fitness (ln) (37 °C): -1.43 ± 0.18

Sequence: UAAUAGCAAUAUUACGGCCC
- self-splicing fitness (ln) (30 °C): -2.07 ± 0.34
- self-splicing fitness (ln) (37 °C): -0.336 ± 0.46

Sequence: UAAUAGCAAUAUUACGGCGG
- self-splicing fitness (ln) (30 °C): -1.27 ± 0.15
- self-splicing fitness (ln) (37 °C): -0.245 ± 0.16

Sequence: UAAUAGCAAUAUUACGGGUG
- self-splicing fitness (ln) (30 °C): -1.9 ± 0.096
- self-splicing fitness (ln) (37 °C): -0.875 ± 0.094

Sequence: UAAUAGCAAUAUUACGGUAU
- self-splicing fitness (ln) (30 °C): -3.69 ± 0.21
- self-splicing fitness (ln) (37 °C): -2.68 ± 0.23

Sequence: UAAUAGCAAUAUUACGUAGG
- self-splicing fitness (ln) (30 °C): -2.37 ± 0.13
- self-splicing fitness (ln) (37 °C): -1.06 ± 0.14
